Measurements reported in US20040049009A1, “Methods for improving the antagonistic/agonistic properties of peptidic antagonists/agonists of the corticotropin-releasing factor receptor (crfr)” (published 2004).
Ends that are not written are not given here.

Experiments:
rat CRF receptor, type 1 [1] = target: T1, rat CRF receptor, type 1 (rat, UniProt P35353); experiment: SPA competition with 0.05 nM [125I-Tyr0]h/rCRF, HEK-293 membranes; 95% CI (0.06-0.51)
rat CRF receptor, type 1 [2] = target: T1, rat CRF receptor, type 1; experiment: SPA competition with 0.05 nM [125I-Tyr0]h/rCRF, HEK-293 membranes; 95% CI (0.15-0.49)

| Binder | IC50 (rat CRF receptor, type 1 [1]) | IC50 (rat CRF receptor, type 1 [2]) |
| --- | --- | --- |
| QGPPISIDLSLELLRKMIEIARAEKEKQQAANNRLLLDTI (ends and bridges not checked) [[Ala^21,23Arg^22]Svg] | 0.29 nM | – |
| QGPPISIDLSLELLRKMIEIAKQEKEKQQAANNRLLLDTI (ends and bridges not checked) [[Ala^21]Svg] | – | 0.32 nM |
